These results are taken from patent US20150306238A1, “BACTERIA TARGETING NANOPARTICLES AND RELATED METHODS OF USE” (THE REGENTS OF THE UNIVERSITY OF MICHIGAN, priority 2012, published 2015).

Several values for one entry are separate records, joined by “and”; a condition that tells them apart may be missing. Identical values can stand only once. Like-named read-outs stand apart in the source and are kept apart here.

One may read the Kd as a measure of binding affinity in units of concentration. What is called koff is the rate constant with which the complex falls apart. Read a high koff as a short-lived complex. What is called kon is a measure of how fast the partners come together.

Assay [1] concerns Staphylococcus aureus. Briefly: Turbidity assay (bacterial cell lysis / growth). Format: cell-based. The note with it: OD at 650 nm, 24 h. An excerpt: This example describes bacterial cell lysis experiments. Whether the binding of the vancomycin-conjugated dendrimer to the bacterial membrane causes bacterial cell lysis was next investigated. […] S.; et al., Antimicrob. Agents Chemother. 2009, 53, 3375-3383; herein incorporated by reference in its entirety)). On the other hand, the lack of such a mechanism would be more desirable for the diagnostic applications that aim for bacterial detection, isolation, and enumeration of whole cells. To determine the degree of cell lysis, a turbidity assay was employed. This assay quantitates the bacterial population in a culture by measuring the optical density (OD at 650 nm), and the cell populations are correlated with the degree of lysis (see, e.g., Chung, H. S.; et al., Proc. Natl. Acad. Sci. U.S.A. 2009, 106, 21872-21877; Lunde, C. S.; et al., Antimicrob. Agents Chemother. 2009, 53, 3375-3383; each herein incorporated by reference in its entirety)). Effects of the conjugates I-VI, VIII, IX on the cell growth rate were determined using the same Gram-positive strain Staphylococcus aureus and were presented as a function of the inhibitor concentration (FIGS. 12 and 13). […]
Turbidity assay. […] After incubation of the plates at 37° C. for 24 h, bacterial growth was examined by optical microscopy and reading an optical density (O. D.) value at 650 nm by an ELISA plate reader.

In assay [2] the test system is N^α-Ac-Lys-(D)-Ala-(D)-Ala peptide. Briefly: SPR binding to vancomycin-susceptible bacterial cell wall model. The note with it: for Kd: (D)-Ala-(D)-Ala surface. An excerpt: SPR spectroscopy is a real-time kinetic method that allows the measurement of the on-rate constant (kon), the off-rate constant (koff), and equilibrium dissociation constant KD (=koff/kon) for receptor-ligand interactions occurring on the surface (see, e.g., Rao, J.; et al., Chem. Biol. (Cambridge, Mass., U.S.) 1999, 6, 353-359; Rao, J.; et al., J. Am. Chem. Soc. 1999, 121, 2629-2630; Hong, S.; et al., Chem. Biol. (Cambridge, Mass., U.S.) 2007, 14, 107-115; Li, M.-H.; Eur. J. Med. Chem. 2012, 47, 560-572; Plantinga, A.; et al., ACS Med. Chem. Lett. 2011, 2, 363-367; Cooper, M. A.; et al., Bioorg. Med. Chem. 2000, 8, 2609-2616; each herein incorporated by reference in its entirety)). The experiments employed SPR spectroscopy to determine the binding constant KD for dendrimer-based multivalent vancomycin conjugates to the cell wall ligands immobilized on the chip surface as a model for the bacterial cell surface. The model surface was prepared by utilizing each CMS sensor chip which was treated to present N^α-Ac-Lys-(D)-Ala-(D)-Ala or N^α-Ac-(D)-Ala-(D)-Lac as the cell wall precursor on the surface, each representing a vancomycin-susceptible and vancomycin-resistant cell wall model, respectively (see, e.g., Rao, J.; et al., Chem. Biol. (Cambridge, Mass., U.S.) 1999, 6, 353-359; Rao, J.; et al., J. Am. Chem. Soc. 1999, 121, 2629-2630; each herein incorporated by reference in its entirety)). Such a peptide-presenting chip was prepared typically following a N-(3-dimethylaminopropyl)-N′-ethylcarbodiimide (EDC)-based amide coupling method at a surface peptide density of 0.12 ng/mm^2 (equivalent to 2.2×10^11 molecules/mm^2) (see, e.g., Hong, S.; et al., Chem. Biol. (Cambridge, Mass., U.S.) 2007, 14, 107-115; Plantinga, A.; et al., ACS Med. Chem. Lett. 2011, 2, 363-367; each herein incorporated by reference in its entirety)).
SPR spectroscopy. […]

Assay [3] deals with N^α-Ac-Lys-(D)-Ala-(D)-Lac peptide. In words: SPR binding to vancomycin-resistant bacterial cell wall model. An excerpt:
SPR spectroscopy is a real-time kinetic method that allows the measurement of the on-rate constant (kon), the off-rate constant (koff), and equilibrium dissociation constant KD (=koff/kon) for receptor-ligand interactions occurring on the surface (see, e.g., Rao, J.; et al., Chem. Biol. (Cambridge, Mass., U.S.) 1999, 6, 353-359; Rao, J.; et al., J. Am. Chem. Soc. 1999, 121, 2629-2630; Hong, S.; et al., Chem. Biol. (Cambridge, Mass., U.S.) 2007, 14, 107-115; Li, M.-H.; Eur. J. Med. Chem. 2012, 47, 560-572; Plantinga, A.; et al., ACS Med. Chem. Lett. 2011, 2, 363-367; Cooper, M. A.; et al., Bioorg. Med. Chem. 2000, 8, 2609-2616; each herein incorporated by reference in its entirety)). The experiments employed SPR spectroscopy to determine the binding constant KD for dendrimer-based multivalent vancomycin conjugates to the cell wall ligands immobilized on the chip surface as a model for the bacterial cell surface. […]
On the technique in general: In SPR one partner is held on a chip, and binding of the other changes the refractive index at the surface.

For assay [4] the test system is unchanged. The conditions noted are these: cited from earlier work.
Assay [5] has as its target N^α-Ac-Lys-(D)-Ala-(D)-Ala peptide. The conditions noted are these: vancomycin to (D)-Ala-(D)-Ala, literature; cited from earlier work.
In assay [6] the test system is bacterial cells. The note with it: reported in literature; cited from earlier work.
Assay [7] addresses N^α-Ac-Lys-(D)-Ala-(D)-Lac peptide. In words: SPR (Biacore X), peptide immobilised on CM5 chip, Langmuir fit.
Assay [8] has the same target. Briefly: SPR; ratio against free vancomycin.
Assay [9] concerns the target N^α-Ac-Lys-(D)-Ala-(D)-Ala peptide. Briefly: SPR (Biacore X), peptide immobilised on CM5 chip, Langmuir fit.
For assay [10] the target is unchanged. Briefly: SPR; ratio against free vancomycin.
The target is the same in assay [11]. In words: SPR; vancomycin is the reference.
Assay [12] deals with N^α-Ac-Lys-(D)-Ala-(D)-Lac peptide. In words: SPR; vancomycin is the reference.
Assay [13] has as its target N^α-Ac-Lys-(D)-Ala-(D)-Ala peptide. In words: SPR (Biacore X), peptide immobilised on CM5 chip, Scatchard analysis.
In assay [14] the target is N^α-Ac-Lys-(D)-Ala-(D)-Lac peptide. Described as above.

With `CN[C@H](CC(C)C)C(=O)N[C@H]1C(=O)N[C@@H](CC(N)=O)C(=O)N[C@H]2C(=O)N[C@H]3C(=O)N[C@H](C(=O)N[C@H](C(=O)O)c4cc(O)cc(O)c4-c4cc3ccc4O)[C@H](O)c3ccc(c(Cl)c3)Oc3cc2cc(c3O[C@@H]2O[C@H](CO)[C@@H](O)[C@H](O)[C@H]2O[C@H]2C[C@](C)(N)[C@H](O)[C@H](C)O2)Oc2ccc(cc2Cl)[C@H]1O` [Vancomycin, vancomycin], in [1], the “concentration at which optical density decreased to the background level” value was no less than 0.1 µM. The dissociation constant (Kd) in assay [2] is 0.95 µM; in [2] (mean (SEM), vancomycin by Scatchard analysis) it was 0.95 µM; in assay [3] ((D)-Ala-(D)-Lac surface, mean (SEM), vancomycin by Scatchard analysis), 1500 µM and ~1500 µM; in [4] (vancomycin to (D)-Ala-(D)-Lac, literature), ~1000 µM and 1700 µM; in assay [5], roughly 1 µM. Moreover, the “SPR binding response to the (D)-Ala-(D)-Ala surface” value in [2] (in words, vancomycin at concentrations as low as 2 nM) is recorded as “no detectable response”. In [3] (in words), the “SPR binding response to the (D)-Ala-(D)-Lac surface” value is “very low responses”. Moreover, in [4] (relative to (D)-Ala-(D)-Ala, reported), the “reduction in affinity of (D)-Ala-(D)-Lac surface to free vancomycin” value is listed as roughly 1000 fold.
With `CCCCCCCCCCNCCN[C@@]1(C)C[C@H](O[C@H]2[C@H](Oc3c4cc5cc3Oc3ccc(cc3Cl)[C@@H](O)[C@@H](NC(=O)[C@@H](CC(C)C)NC)C(=O)N[C@@H](CC(N)=O)C(=O)N[C@H]5C(=O)N[C@H]3C(=O)N[C@H](C(=O)N[C@H](C(=O)O)c5cc(O)c(CNCP(=O)(O)O)c(O)c5-c5cc3ccc5O)[C@H](O)c3ccc(c(Cl)c3)O4)O[C@H](CO)[C@@H](O)[C@@H]2O)O[C@@H](C)[C@H]1O` [telavancin], the “bactericidal activity / cell lysis” value in [6] is given as “potent bactericidal activity without causing cell lysis”.
In assay [7], I Ac-G5-(V)1.2 registered an equilibrium dissociation constant (Kd) of 0.0071 µM, an off-rate constant (koff) of 0.00066 s⁻¹ and an on-rate constant (kon) of 98000 M⁻¹ s⁻¹. In [8], the valency-corrected β (= β ÷ n) stood at 18000 and the β (multivalent binding enhancement = KD vancomycin ÷ KD G5-(V)n) is 210000.
As for II Ac-G5-(V)2.3, in assay [9], the Kd was found to be 0.0034 µM, the koff is 0.00045 s⁻¹ and the kon worked out at 150000 M⁻¹ s⁻¹. In assay [7], this molecule came in with a Kd of 0.0081 µM, a koff of 0.00041 s⁻¹ and an on-rate constant (kon) of 320000 M⁻¹ s⁻¹. In assay [10], the valency-corrected β (= β ÷ n) came out at 122 and the β (multivalent binding enhancement = KD vancomycin ÷ KD G5-(V)n) amounted to 280. In addition, in [8], the valency-corrected β (= β ÷ n) was determined as 81000 and the β (multivalent binding enhancement = KD vancomycin ÷ KD G5-(V)n) was 190000.
Turning to III Ac-G5-(V)3.5, in assay [7], the Kd came to 0.002 µM, the koff came to 0.00045 s⁻¹ and the kon is 640000 M⁻¹ s⁻¹. For the same molecule, in assay [8], the valency-corrected β (= β ÷ n) turned out to be 210000 and the β (multivalent binding enhancement = KD vancomycin ÷ KD G5-(V)n) is 750000.
In [9], IV Ac-G5-(V)5.8 showed an equilibrium dissociation constant (Kd) of 0.00025 µM, an off-rate constant (koff) of 4.4e-05 s⁻¹ and a kon of 450000 M⁻¹ s⁻¹. In [7], this molecule yielded a dissociation constant (Kd) of 0.0017 µM, a koff of 0.00029 s⁻¹ and an association rate constant (kon) of 690000 M⁻¹ s⁻¹. Besides, in [10], the valency-corrected β (= β ÷ n) is 655 and the β (multivalent binding enhancement = KD vancomycin ÷ KD G5-(V)n) is 3800. Also, in [8], the valency-corrected β (= β ÷ n) came out at 150000 and the β (multivalent binding enhancement = KD vancomycin ÷ KD G5-(V)n) came out at 880000.
With VI GA-G5-(V)6.0, in assay [9], the Kd was determined as 0.00054 µM, the dissociation rate constant (koff) was 0.00036 s⁻¹ and the association rate constant (kon) came out at 670000 M⁻¹ s⁻¹. Moreover, in [7], the Kd was 0.0034 µM, the koff came out at 0.0028 s⁻¹ and the kon came to 1.8e+06 M⁻¹ s⁻¹. Further, in assay [10], the valency-corrected β (= β ÷ n) stood at 293 and the β (multivalent binding enhancement = KD vancomycin ÷ KD G5-(V)n) was 1760. Besides, in [8], the valency-corrected β (= β ÷ n) amounted to 74000 and the β (multivalent binding enhancement = KD vancomycin ÷ KD G5-(V)n) was determined as 440000.
Regarding Vancomycin (peptide), the β (multivalent binding enhancement = KD vancomycin ÷ KD G5-(V)n) in assay [11] and in assay [12] was 1 each time. Also, the dissociation constant Kd in [13] was found to be 0.95 µM; in assay [14] it was 1500 µM.
